This assay concerns the target T1, Vascular endothelial growth factor (VEGF165), P15692.
T1 chain: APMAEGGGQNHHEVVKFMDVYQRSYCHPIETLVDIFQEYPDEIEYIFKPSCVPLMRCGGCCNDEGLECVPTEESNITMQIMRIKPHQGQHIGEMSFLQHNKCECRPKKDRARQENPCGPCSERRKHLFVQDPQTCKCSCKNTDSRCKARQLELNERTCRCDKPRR
Kind of assay: competition FP, tracer BODIPY-v114*ΔNT.

VDNKFNKEMHNAYAIEIALLPNLNDQQFHAFIWSLIDD (modifications not checked) [Z-VEGF (1-38)]: the Ki (commonly the equilibrium dissociation constant of an inhibitor or competing ligand from its target) was more than 100 µM.
The value for VDNKFNKEQHNARAIEAALDPNLNDQQFHAKIWSIIDD (modifications not checked) [α-VEGF-1] was more than 100 µM.

(Values after patent US20150203555A1.)
